We go through three molecules from article PMC6403256, “ABHD5 blunts the sensitivity of colorectal cancer to fluorouracil via promoting autophagic uracil yield” (Nature Communications, 2019).

Common to all, as to details: both partners purified
For assay [1], the target named is T1, PDIA5 on the HuProt human protein chip (human, UniProt Q14554 22-519).
T1 construct: PDIA5, human, as spotted on the HuProt human protein chip; source: spotted on the HuProt human protein chip
T1 sequence (looked up): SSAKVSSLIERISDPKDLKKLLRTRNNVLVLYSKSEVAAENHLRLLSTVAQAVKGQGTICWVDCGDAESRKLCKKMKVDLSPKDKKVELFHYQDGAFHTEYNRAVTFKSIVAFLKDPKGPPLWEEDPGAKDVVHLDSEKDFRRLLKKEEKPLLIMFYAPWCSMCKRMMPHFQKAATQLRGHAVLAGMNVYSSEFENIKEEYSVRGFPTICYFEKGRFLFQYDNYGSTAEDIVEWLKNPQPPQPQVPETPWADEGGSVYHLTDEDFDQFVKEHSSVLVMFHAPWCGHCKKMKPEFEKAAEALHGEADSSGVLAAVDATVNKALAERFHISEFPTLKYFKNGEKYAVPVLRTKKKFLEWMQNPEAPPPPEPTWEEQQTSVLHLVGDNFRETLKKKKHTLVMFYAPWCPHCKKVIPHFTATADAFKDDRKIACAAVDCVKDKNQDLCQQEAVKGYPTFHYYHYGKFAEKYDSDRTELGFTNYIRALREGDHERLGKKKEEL
As to the kind of experiment: peptide or protein array; human ABHD5 recombinant protein used to probe the HuProt human protein chip.

Assay [2] deals with T2, GST-tagged wild type PDIA5 (human, UniProt Q14554 22-519).
T2 construct: PDIA5, human, wild type; also called GST-PDIA5; wild type PDIA5 (W); source: expressed and purified; recombinant protein from Wuhan GeneCreate Biological Engineering Co., Ltd
T2 sequence (looked up): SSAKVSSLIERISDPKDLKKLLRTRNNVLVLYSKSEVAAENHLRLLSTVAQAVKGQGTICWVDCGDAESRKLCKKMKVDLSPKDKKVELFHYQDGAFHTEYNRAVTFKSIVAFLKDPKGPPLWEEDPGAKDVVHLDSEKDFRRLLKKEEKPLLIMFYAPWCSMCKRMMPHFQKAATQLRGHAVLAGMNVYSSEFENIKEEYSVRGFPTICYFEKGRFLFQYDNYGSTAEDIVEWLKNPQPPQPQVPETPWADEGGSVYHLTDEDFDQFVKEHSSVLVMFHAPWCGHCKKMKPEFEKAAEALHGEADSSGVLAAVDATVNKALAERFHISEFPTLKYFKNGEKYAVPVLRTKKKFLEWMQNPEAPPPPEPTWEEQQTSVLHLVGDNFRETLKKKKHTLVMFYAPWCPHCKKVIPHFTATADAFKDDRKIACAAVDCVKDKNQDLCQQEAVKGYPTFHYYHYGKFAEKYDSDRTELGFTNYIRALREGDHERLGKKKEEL
Briefly: pull-down; Ni-NTA bead pull-down: 50 ug GST, GST-PDIA5 or mutant GST-PDIA5 with 50 ug immobilized His-ABHD5 or His-RNASET2; 20 mM Tris pH 8.0, 100 mM NaCl, 0.2% Triton X-100; 4 C, 4 h; eluates blotted with anti-GST.

Another assay deals with T3, His-PDIA5 (human, UniProt Q14554 22-519).
T3 construct: PDIA5, human, wild type; source: recombinant protein from Wuhan GeneCreate Biological Engineering Co., Ltd
T3 sequence (looked up): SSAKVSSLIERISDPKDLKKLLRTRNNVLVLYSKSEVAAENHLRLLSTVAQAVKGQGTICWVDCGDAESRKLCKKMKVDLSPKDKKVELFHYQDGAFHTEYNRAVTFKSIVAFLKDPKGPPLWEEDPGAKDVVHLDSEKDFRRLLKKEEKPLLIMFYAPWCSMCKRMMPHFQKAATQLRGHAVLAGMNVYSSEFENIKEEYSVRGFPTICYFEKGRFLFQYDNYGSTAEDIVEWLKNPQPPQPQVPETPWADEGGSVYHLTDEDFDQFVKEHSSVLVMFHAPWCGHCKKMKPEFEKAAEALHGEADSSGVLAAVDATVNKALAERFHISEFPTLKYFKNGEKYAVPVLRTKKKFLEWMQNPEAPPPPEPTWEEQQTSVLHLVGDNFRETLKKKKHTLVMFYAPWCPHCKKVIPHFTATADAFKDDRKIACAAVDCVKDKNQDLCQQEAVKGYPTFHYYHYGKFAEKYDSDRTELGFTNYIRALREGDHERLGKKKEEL
As to the kind of experiment: pull-down; competitive binding: 50 ug GST-RNASET2 mixed with 0, 50, 100, 200 ug GST-ABHD5, incubated with 50 ug immobilized His-PDIA5 at 4 C for 4 h; detected by blot.

B1: human ABHD5 recombinant protein (probe on the HuProt chip) (natural protein, UniProt Q8WTS1 1-349, looked up)
chain: MAAEEEEVDSADTGERSGWLTGWLPTWCPTSISHLKEAEEKMLKCVPCTYKKEPVRISNGNKIWTLKFSHNISNKTPLVLLHGFGGGLGLWALNFGDLCTNRPVYAFDLLGFGRSSRPRFDSDAEEVENQFVESIEEWRCALGLDKMILLGHNLGGFLAAAYSLKYPSRVNHLILVEPWGFPERPDLADQDRPIPVWIRALGAALTPFNPLAGLRIAGPFGLSLVQRLRPDFKRKYSSMFEDDTVTEYIYHCNVQTPSGETAFKNMTIPYGWAKRPMLQRIGKMHPDIPVSVIFGARSCIDGNSGTSIQSLRPHSYVKTIAILGAGHYVYADQPEEFNQKVKEICDTVD
notes: ABHD5, human, recombinant protein used to probe the HuProt human protein chip; The methods list two recombinant ABHD5 proteins: His-ABHD5 (Wuhan GeneCreate) and ABHD5 (Human) recombinant protein H00051099-P01 (Novus)
B1: the binding result in assay [1] was “binds”.

B2: His-tagged full-length ABHD5 (natural protein, human, UniProt Q8WTS1 1-349, looked up)
chain: MAAEEEEVDSADTGERSGWLTGWLPTWCPTSISHLKEAEEKMLKCVPCTYKKEPVRISNGNKIWTLKFSHNISNKTPLVLLHGFGGGLGLWALNFGDLCTNRPVYAFDLLGFGRSSRPRFDSDAEEVENQFVESIEEWRCALGLDKMILLGHNLGGFLAAAYSLKYPSRVNHLILVEPWGFPERPDLADQDRPIPVWIRALGAALTPFNPLAGLRIAGPFGLSLVQRLRPDFKRKYSSMFEDDTVTEYIYHCNVQTPSGETAFKNMTIPYGWAKRPMLQRIGKMHPDIPVSVIFGARSCIDGNSGTSIQSLRPHSYVKTIAILGAGHYVYADQPEEFNQKVKEICDTVD
notes: ABHD5, human, wild type, full length; also called His-ABHD5; source: recombinant protein from Wuhan GeneCreate Biological Engineering Co., Ltd
On to B2, for which, in assay [2], the binding result is listed as “binds”.

B3: GST-ABHD5 (natural protein, human, UniProt Q8WTS1 1-349, looked up)
chain: MAAEEEEVDSADTGERSGWLTGWLPTWCPTSISHLKEAEEKMLKCVPCTYKKEPVRISNGNKIWTLKFSHNISNKTPLVLLHGFGGGLGLWALNFGDLCTNRPVYAFDLLGFGRSSRPRFDSDAEEVENQFVESIEEWRCALGLDKMILLGHNLGGFLAAAYSLKYPSRVNHLILVEPWGFPERPDLADQDRPIPVWIRALGAALTPFNPLAGLRIAGPFGLSLVQRLRPDFKRKYSSMFEDDTVTEYIYHCNVQTPSGETAFKNMTIPYGWAKRPMLQRIGKMHPDIPVSVIFGARSCIDGNSGTSIQSLRPHSYVKTIAILGAGHYVYADQPEEFNQKVKEICDTVD
notes: ABHD5, human
Regarding B3, the binding result with His-PDIA5 is listed as “binds”.
